Laboratory results reported in PMC4767637 (Journal of molecular biology, 2016).

Biological target: the molecule itself
Test: NMR

B1: Tyr-705-phosphorylated STAT3 (127-711)-His6 (domain or fragment, human, UniProt P40763 127-711, looked up)
chain: GQANHPTAAVVTEKQQMLEQHLQDVRKRVQDLEQKMKVVENLQDDFDFNYKTLKSQGDMQDLNGNNQSVTRQKMQQLEQMLTALDQMRRSIVSELAGLLSAMEYVQKTLTDEELADWKRRQQIACIGGPPNICLDRLENWITSLAESQLQTRQQIKKLEELQQKVSYKGDPIVQHRPMLEERIVELFRNLMKSAFVVERQPCMPMHPDRPLVIKTGVQFTTKVRLLVKFPELNYQLKIKVCIDKDSGDVAALRGSRKFNILGTNTKVMNMEESNNGSLSAEFKHLTLREQRCGNGGRANCDASLIVTEELHLITFETEVYHQGLKIDLETHSLPVVVISNICQMPNAWASILWYNMLTNNPKNVNFFTKPPIGTWDQVAEVLSWQFSSTTKRGLSIEQLTTLAEKLLGPGVNYSGCQITWAKFCKENMAGKGFSFWVWLDNIIDLVKKYILALWNEGYIMGFISKERERAILSTKPPGTFLLRFSESSKEGGVTFTWVEKDISGKTQIQSVEPYTKQQLNNMSFAEIIMGYKIMDATNILVSPLVYLYPDIPKEEAFGKYCRPESQEHPEADPGSAAPYLKTKFI
modifications: phosphotyrosine at 705
dH (van't Hoff, monomer-dimer equilibrium, from I568 and I654): 14.8 ± 1.1 kcal/mol
dH (van't Hoff, monomer-dimer equilibrium, from I653 and I711): 12.8 ± 0.5 kcal/mol
